Data as given in US20190352367A1 (CLEVELAND CLINIC FOUNDATION, published 2019).

B1: Focal adhesion kinase (FAK), endogenous in breast cell lysates (enzyme)
chain: AAAYLDPNLNHTPNSSTKTHLGTGMERSPGAMERVLKVFHYFESNSEPTTWASIIRHGDATDVRGIIQKIVDSHKVKHVACYGFRLSHLRSEEVHWLHVDMGVSSVREKYELAHPPEEWKYELRIRYLPKGFLNQFTEDKPTLNFFYQQVKSDYMLEIADQVDQEIALKLGCLEIRRSYWEMRGNALEKKSNYEVLEKDVGLKRFFPKSLLDSVKAKTLRKLIQQTFRQFANLNREESILKFFEILSPVYRFDKECFKCALGSSWIISVELAIGPEEGISYLTDKGCNPTHLADFTQVQTIQYSNSEDKDRKGMLQLKIAGAPEPLTVTAPSLTIAENMADLIDGYCRLVNGTSQSFIIRPQKEGERALPSIPKLANSEKQGMRTHAVSVSETDDYAEIIDEEDTYTMPSTRDYEIQRERIELGRCIGEGQFGDVHQGIYMSPENPALAVAIKTCKNCTSDSVREKFLQEALTMRQFDHPHIVKLIGVITENPVWIIMELCTLGELRSFLQVRKYSLDLASLILYAYQLSTALAYLESKRFVHRDIAARNVLVSSNDCVKLGDFGLSRYMEDSTYYKASKGKLPIKWMAPESINFRRFTSASDVWMFGVCMWEILMHGVKPFQGVKNNDVIGRIENGERLPMPPNCPPTLYSLMTKCWAYDPSRRPRFTELKAQLSTILEEEKAQQEERMRMESRRQATVSWDSGGSDEAPPKPSRPGYPSPRSSEGFYPSPQHMVQTNHYQVSGYPGSHGITAMAGSIYPGQASLLDQTDSWNHRPQEIAMWQPNVEDSTVLDLRGIGQVLPTHLMEERLIRQQQEMEEDQRWLEKEERFLKPDVRLSRGSIDREDGSLQGPIGNQHIYQPVGKPDPAAPPKKPPRPGAPGHLGSLASLSSPADSYNEGVKLQPQEISPPPTANLDRSNDKVYENVTGLVKAVIEMSSKIQPAPPEEYVPMVKEVGLALRTLLATVDETIPLLPASTHREIEMAQKLLNSDLGELINKMKLAQQYVMTSLQQEYKKQMLTAAHALAVDAKNLLDVIDQARLKMLGQTRPH
notes: Protein from cell lysates in co-immunoprecipitation; also called total FAK

Assays:
[1] = biological target: Connexin 26 (Cx26), endogenous or overexpressed in breast cell lysates (UniProt P29033 1-226); experiment: reciprocal co-immunoprecipitation (anti-Cx26, anti-FAK) from bulk MCF7 and MCF10A lysates, western blot; non-immune IgG as control
[2] = biological target: T1, Nanog transcription factor (NANOG), SPR ligand (UniProt Q9H9S0 1-305, limits assumed); experiment: SPR, peptide as analyte, NANOG as ligand
T1 construct: the NANOG preparation is not described

[3] = biological target: T2, Focal Adhesion Kinase (FAK), SPR ligand (UniProt Q05397 1-1052, limits assumed); experiment: SPR, peptide as analyte, FAK as ligand
T2 construct: the FAK preparation is not described

T1 sequence (Q9H9S0 whole entry): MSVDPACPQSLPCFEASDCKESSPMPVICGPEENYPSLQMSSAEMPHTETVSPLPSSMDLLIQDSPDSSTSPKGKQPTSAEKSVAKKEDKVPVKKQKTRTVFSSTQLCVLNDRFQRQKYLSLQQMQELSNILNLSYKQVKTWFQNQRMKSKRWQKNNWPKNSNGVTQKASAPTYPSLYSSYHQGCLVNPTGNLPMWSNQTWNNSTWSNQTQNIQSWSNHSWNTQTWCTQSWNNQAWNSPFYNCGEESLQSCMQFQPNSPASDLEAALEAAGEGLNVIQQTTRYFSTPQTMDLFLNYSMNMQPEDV

binding result [1] | Kd [2] [µM] | Kd [3] [µM] | Binder
binds |  |  | B1
 | 0.17 | 14.9 | RYCSGKSKKPV (also called cytoplasmic tail of Cx26) [Cx26 blocking peptide 5 (C-terminus)]
